In US20170058297A1:
Substitutions are numbered along the chain they refer to.

Columns and labels:
[1] = target: Cre-B2 (P1 Bacteriophage) (UniProt P06956); assay: cell-based or functional assay
[2] = target: Cre-B3 (P1 Bacteriophage) (UniProt P06956); assay: cell-based or functional assay
[3] = target: Cre-A3 (P1 Bacteriophage) (UniProt P06956); assay: cell-based or functional assay
Cre-B2 = target: T1, Cre-B2
T1 chain: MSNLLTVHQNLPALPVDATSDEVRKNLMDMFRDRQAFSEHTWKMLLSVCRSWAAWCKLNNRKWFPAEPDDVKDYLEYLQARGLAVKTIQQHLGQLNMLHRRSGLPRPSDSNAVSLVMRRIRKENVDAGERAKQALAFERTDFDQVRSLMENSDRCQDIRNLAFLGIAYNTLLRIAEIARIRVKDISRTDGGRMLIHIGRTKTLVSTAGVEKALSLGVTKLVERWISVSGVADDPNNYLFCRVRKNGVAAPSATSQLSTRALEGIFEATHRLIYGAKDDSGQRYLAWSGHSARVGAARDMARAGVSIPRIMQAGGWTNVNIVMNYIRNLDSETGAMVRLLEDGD

[4] = target: Cre-A1 (P1 Bacteriophage) (UniProt P06956); assay: cell-based or functional assay
[5] = target: Cre-B1 (P1 Bacteriophage) (UniProt P06956); assay: cell-based or functional assay
Cre-B1 = target: T2, Cre-B1
T2 chain: T1 chain with R308E

B1: Cre-A3 (protein)
chain: MSNLLTVHQNLPALPVDATSDEVRRNLMRMFELRRAFSEHTWKMLLSVCRSWAAWCKLNNRKWFPAEPEDVRDYLLYLQARGLAVKTIQQHLGQLNMLHRRSGLPRPSDSNAVSLVMRRIRKLNVDAGERAKQALAFERTDFDQVRSLMENSDRCQDIRNLAFLGIAYNTLLRIAEIARIRVKDISRTDGGRMLIHIGRTKTLVSTAGVEKALSLGVTKLVERWISVSGVADDPNNYLFCRVRKNGVAAPSATSQLSTRALEGIFEATHRLIYGAKDDSGQRYLAWSGHSARVGAARDMARAGVSIPEIMQAGGWTNVNIVMNYIRNLDSETGAMVELLEDGD
RFP positive cells of 7000 sorted, Ai14 mouse ES reporter cells, promoter hbb + cmv, replicate 1 [1]: 1600 cells
RFP positive cells of 7000 sorted, Ai14 mouse ES reporter cells, promoter hbb + cmv, replicate 2 [1]: 1650 cells
RFP positive cells of 7000 sorted, Ai14 mouse ES reporter cells, promoter hbb + cmv, replicate 3 [1]: 1700 cells
RFP positive cells of 7000 sorted, Ai14 mouse ES reporter cells, promoter hbb + sp1, replicate 1 [1]: 1500 cells
RFP positive cells of 7000 sorted, Ai14 mouse ES reporter cells, promoter hbb + sp1, replicate 2 [1]: 1530 cells
RFP positive cells of 7000 sorted, Ai14 mouse ES reporter cells, promoter hbb + sp1, replicate 3 [1]: 1610 cells
RFP positive cells of 7000 sorted, Ai14 mouse ES reporter cells, promoter hbb, replicate 1 [1]: 256 cells
RFP positive cells of 7000 sorted, Ai14 mouse ES reporter cells, promoter hbb, replicate 2 [1]: 233 cells
RFP positive cells of 7000 sorted, Ai14 mouse ES reporter cells, promoter hbb, replicate 3 [1]: 284 cells
recombinase activity in mouse ES reporter cells, relative to wild type Cre (% of wild type Cre activity) [1]: 40
RFP positive cells of 7000 sorted, Ai14 mouse ES reporter cells, promoter hbb + cmv, replicate 1 [2]: 1 cells
RFP positive cells of 7000 sorted, Ai14 mouse ES reporter cells, promoter hbb + cmv, replicate 2 [2]: 2 cells
RFP positive cells of 7000 sorted, Ai14 mouse ES reporter cells, promoter hbb + cmv, replicate 3 [2]: 1 cells
RFP positive cells of 7000 sorted, Ai14 mouse ES reporter cells, promoter hbb + sp1, replicate 1 [2]: 1 cells
RFP positive cells of 7000 sorted, Ai14 mouse ES reporter cells, promoter hbb + sp1, replicate 2 [2]: 1 cells
RFP positive cells of 7000 sorted, Ai14 mouse ES reporter cells, promoter hbb + sp1, replicate 3 [2]: 2 cells
RFP positive cells of 7000 sorted, Ai14 mouse ES reporter cells, promoter hbb, replicate 1 [2]: 0 cells
RFP positive cells of 7000 sorted, Ai14 mouse ES reporter cells, promoter hbb, replicate 2 [2]: 1 cells
RFP positive cells of 7000 sorted, Ai14 mouse ES reporter cells, promoter hbb, replicate 3 [2]: 0 cells
RFP positive cells of 7000 sorted, Ai14 mouse ES reporter cells, promoter hbb + cmv, replicate 1 [3]: 0 cells
RFP positive cells of 7000 sorted, Ai14 mouse ES reporter cells, promoter hbb + cmv, replicate 2 [3]: 1 cells
RFP positive cells of 7000 sorted, Ai14 mouse ES reporter cells, promoter hbb + cmv, replicate 3 [3]: 1 cells
RFP positive cells of 7000 sorted, Ai14 mouse ES reporter cells, promoter hbb + sp1, replicate 1 [3]: 1 cells
RFP positive cells of 7000 sorted, Ai14 mouse ES reporter cells, promoter hbb + sp1, replicate 2 [3]: 0 cells
RFP positive cells of 7000 sorted, Ai14 mouse ES reporter cells, promoter hbb + sp1, replicate 3 [3]: 0 cells
RFP positive cells of 7000 sorted, Ai14 mouse ES reporter cells, promoter hbb, replicate 1 [3]: 0 cells
RFP positive cells of 7000 sorted, Ai14 mouse ES reporter cells, promoter hbb, replicate 2 [3]: 0 cells
RFP positive cells of 7000 sorted, Ai14 mouse ES reporter cells, promoter hbb, replicate 3 [3]: 1 cells
recombinase activity in vitro on six loxP/M7 hybrid substrates (gel) (Cre-B2-C2#4): In vitro assays confirmed that the heterotetrameric Cre is more specific in recombining different arrangement of loxP/M7 sites
recombinase activity in vitro (loxP excision, gel) (Cre-B2): preserving activity in the Cre-A3+Cre-B2 heterotetramer
recombinase activity in vitro (loxP excision, gel): This mutation successfully disrupted formation of Cre-A2 homotetramers

B2: Cre-A1 (protein)
chain: B1 chain with L123E, E337R
RFP positive cells of 7000 sorted, Ai14 mouse ES reporter cells, promoter hbb + cmv, replicate 1 [4]: 3850 cells
RFP positive cells of 7000 sorted, Ai14 mouse ES reporter cells, promoter hbb + cmv, replicate 2 [4]: 3530 cells
RFP positive cells of 7000 sorted, Ai14 mouse ES reporter cells, promoter hbb + cmv, replicate 3 [4]: 3690 cells
RFP positive cells of 7000 sorted, Ai14 mouse ES reporter cells, promoter hbb + sp1, replicate 1 [4]: 3750 cells
RFP positive cells of 7000 sorted, Ai14 mouse ES reporter cells, promoter hbb + sp1, replicate 2 [4]: 3420 cells
RFP positive cells of 7000 sorted, Ai14 mouse ES reporter cells, promoter hbb + sp1, replicate 3 [4]: 3500 cells
RFP positive cells of 7000 sorted, Ai14 mouse ES reporter cells, promoter hbb, replicate 1 [4]: 414 cells
RFP positive cells of 7000 sorted, Ai14 mouse ES reporter cells, promoter hbb, replicate 2 [4]: 378 cells
RFP positive cells of 7000 sorted, Ai14 mouse ES reporter cells, promoter hbb, replicate 3 [4]: 391 cells
RFP positive cells of 7000 sorted, Ai14 mouse ES reporter cells, promoter hbb + cmv, replicate 1 [5]: 5870 cells
RFP positive cells of 7000 sorted, Ai14 mouse ES reporter cells, promoter hbb + cmv, replicate 2 [5]: 6030 cells
RFP positive cells of 7000 sorted, Ai14 mouse ES reporter cells, promoter hbb + cmv, replicate 3 [5]: 6360 cells
RFP positive cells of 7000 sorted, Ai14 mouse ES reporter cells, promoter hbb + sp1, replicate 1 [5]: 5700 cells
RFP positive cells of 7000 sorted, Ai14 mouse ES reporter cells, promoter hbb + sp1, replicate 2 [5]: 6120 cells
RFP positive cells of 7000 sorted, Ai14 mouse ES reporter cells, promoter hbb + sp1, replicate 3 [5]: 5990 cells
RFP positive cells of 7000 sorted, Ai14 mouse ES reporter cells, promoter hbb, replicate 1 [5]: 1120 cells
RFP positive cells of 7000 sorted, Ai14 mouse ES reporter cells, promoter hbb, replicate 2 [5]: 1210 cells
RFP positive cells of 7000 sorted, Ai14 mouse ES reporter cells, promoter hbb, replicate 3 [5]: 1320 cells
recombinase activity in vitro (loxP excision, gel) (Cre-B1): the combined pair of redesigned mutants was active (Cre-A1+Cre-B1
recombinase activity in vitro (loxP excision, gel): one of the mutants (Cre-A1) was active individually
